{"source": "patent US11440969B2", "about": "“Use of human epididymis protein 4 (HE4) for assessing responsiveness of MUC 16-positive cancer treatment” (Genentech, Inc., priority 2016, dated 2022)", "molecules": {"B1": {"name": "DMUC5754A: antibody-drug conjugate: humanized IgG1 anti-MUC16 monoclonal antibody and MMAE, linked through protease labile linker maleimidocaproyl-valine-citrulline-p-aminobenzyloxycarbonyl (conjugate, chains of the INN, looked up)", "VH": "EVQLVESGGGLVQPGGSLRLSCAASGYSITNDYAWNWVRQAPGKGLEWVGYISYSGYTTYNPSLKSRFTISRDTSKNTLYLQMNSLRAEDTAVYYCARWTSGLDYWGQGTLVTVSS", "VL": "DIQMTQSPSSLSASVGDRVTITCKASDLIHNWLAWYQQKPGKAPKLLIYGATSLETGVPSRFSGSGSGTDFTLTISSLQPEDFATYYCQQYWTTPFTFGQGTKVEIK", "modifications": "MMAE via mc-vc-PABC linker"}}, "system": "platinum-resistant ovarian cancer", "experiment": "Clinical activity of DMUC5754A (RECIST v1.1) in ovarian cancer patients", "assay_type": "in vivo, human", "experimental": "This multicenter, open-label, dose-escalation study was designed to identify the recommended Phase II dose (RP2D) of DMUC5754A in patients with platinum-resistant OC or unresectable pancreatic cancer. In the single-agent dose escalation stage utilizing a 3+3 enrollment scheme, patients were given intravenous DMUC5754A (Genentech Inc.) 0.3-3.2 mg/kg every 3 weeks (q3w) to evaluate the safety, tolerability, and pharmacokinetics of DMUC5754A. Following determination of the maximum tolerated dose (MTD), dose-expansion cohorts were enrolled at the RP2D of 2.4 mg/kg to further characterize the safety and preliminary clinical efficacy of DMUC5754A.\nDosing on a weekly (qlw) schedule was also evaluated at the RP2D, employing a 3+3 design to determine the MTD of weekly dosing, followed by a cohort expansion to further characterize the safety and activity of q1w dosing.\nOC patients had advanced, epithelial ovarian, primary peritoneal, or fallopian tube cancer that progressed or relapsed within 6 months after the most recent treatment with a platinum-containing chemotherapy regimen and for which no standard therapy exists. […] Progression or relapse from prior platinum-based chemotherapy was documented by RECIST v1.1 or Gynecologic Cancer Intergroup (GCIG) CA125 progression criteria (Vergote et al., 2000). Patients were allowed ≤2 prior chemotherapy regimens.\nObjective response rate was estimated only for patients with disease that was measurable by RECIST guidelines. Objective response is defined as a complete or partial response, as determined by investigator assessment and confirmed by repeat assessments ≥4 weeks after initial documentation. Duration of objective response was defined as the time from the initial complete or partial response to the time of disease progression or death.", "data": [{"molecule": "B1", "values": [{"measurement": "Best response: Complete response, patients", "setting": "0.8 mg/kg q1w (N = 3)", "value": 0}, {"measurement": "Best response: Partial response, patients", "setting": "0.8 mg/kg q1w (N = 3)", "value": 1}, {"measurement": "Best response: Progressive disease, patients", "setting": "0.8 mg/kg q1w (N = 3)", "value": 0}, {"measurement": "Best response: Stable disease, patients", "setting": "0.8 mg/kg q1w (N = 3)", "value": 2}, {"measurement": "Best response: Unable to evaluate, patients", "setting": "0.8 mg/kg q1w (N = 3)", "value": 0}, {"measurement": "Duration of response, Median", "setting": "0.8 mg/kg q1w (N = 3)", "value": 3.0, "unit": "months"}, {"measurement": "Duration of response, Range", "setting": "0.8 mg/kg q1w (N = 3)", "value": "3.0-3.0 months"}, {"measurement": "unconfirmed partial responses, patients", "setting": "1.1 mg/kg q1w", "value": 1}, {"measurement": "Best response: Complete response, patients", "setting": "1.1 mg/kg q1w (N = 7)", "value": 0}, {"measurement": "Best response: Partial response, patients", "setting": "1.1 mg/kg q1w (N = 7)", "value": 1}, {"measurement": "Best response: Progressive disease, patients", "setting": "1.1 mg/kg q1w (N = 7)", "value": 3}, {"measurement": "Best response: Stable disease, patients", "setting": "1.1 mg/kg q1w (N = 7)", "value": 3}, {"measurement": "Best response: Unable to evaluate, patients", "setting": "1.1 mg/kg q1w (N = 7)", "value": 0}, {"measurement": "Duration of response, Median", "setting": "1.1 mg/kg q1w (N = 7)", "value": 6.8, "unit": "months"}, {"measurement": "Duration of response, Range", "setting": "1.1 mg/kg q1w (N = 7)", "value": "6.8-6.8 months"}, {"measurement": "minor responses, patients", "setting": "1.2 mg/kg q3w", "value": 1}, {"measurement": "minor responses, patients", "setting": "1.4 mg/kg q1w", "value": 1}, {"measurement": "Best response: Complete response, patients", "setting": "1.4 mg/kg q1w (N = 6)", "value": 0}, {"measurement": "Best response: Partial response, patients", "setting": "1.4 mg/kg q1w (N = 6)", "value": 1}, {"measurement": "Best response: Progressive disease, patients", "setting": "1.4 mg/kg q1w (N = 6)", "value": 2}, {"measurement": "Best response: Stable disease, patients", "setting": "1.4 mg/kg q1w (N = 6)", "value": 2}, {"measurement": "Best response: Unable to evaluate, patients", "setting": "1.4 mg/kg q1w (N = 6)", "value": 1}, {"measurement": "Duration of response, Median", "setting": "1.4 mg/kg q1w (N = 6)", "value": 4.6, "unit": "months"}, {"measurement": "Duration of response, Range", "setting": "1.4 mg/kg q1w (N = 6)", "value": "4.6-4.6 months"}, {"measurement": "minor responses, patients", "setting": "1.6 mg/kg q1w", "value": 1}, {"measurement": "minor responses, patients", "setting": "2.4 mg/kg q3w", "value": "Two"}, {"measurement": "unconfirmed partial responses, patients", "setting": "2.4 mg/kg q3w", "value": 1}, {"measurement": "Best response: Complete response, patients", "setting": "2.4 mg/kg q3w (N = 29)", "value": 1}, {"measurement": "Best response: Partial response, patients", "setting": "2.4 mg/kg q3w (N = 29)", "value": 3}, {"measurement": "Best response: Progressive disease, patients", "setting": "2.4 mg/kg q3w (N = 29)", "value": 6}, {"measurement": "Best response: Stable disease, patients", "setting": "2.4 mg/kg q3w (N = 29)", "value": 17}, {"measurement": "Best response: Unable to evaluate, patients", "setting": "2.4 mg/kg q3w (N = 29)", "value": 2}, {"measurement": "Duration of response, Median", "setting": "2.4 mg/kg q3w (N = 29)", "value": 4.9, "unit": "months"}, {"measurement": "Duration of response, Range", "setting": "2.4 mg/kg q3w (N = 29)", "value": "3.0-11.3 months"}, {"measurement": "minor responses, patients", "setting": "3.2 mg/kg q3w", "value": 1}, {"measurement": "average length of time on the study", "setting": "FIG. 4", "value": 103, "unit": "days"}, {"measurement": "decrease in SLD of target lesions", "setting": "a patient at 3.2 mg/kg q3w, PD as overall status due to new lesions", "value": "> 30", "unit": "%"}, {"measurement": "patients on the study ≥105 days", "setting": "of the 29 patients at 2.4 mg/kg q3w", "value": "Sixteen"}, {"measurement": "reduction (MRI), complete response", "setting": "person, 2.4 mg/kg IV q3w, after two doses", "value": 100, "unit": "%"}, {"measurement": "tumor response nadir, reduction", "setting": "person, 2.4 mg/kg, after 8 doses", "value": 88, "unit": "%"}, {"measurement": "reduction in 3 target lesions (CT), partial response", "setting": "person, 2.4 mg/kg, after two doses", "value": 37, "unit": "%"}, {"measurement": "confirmed responses", "setting": "q1w cohorts, at 0.8, 1.1, and 1.4 mg/kg levels", "value": 3}]}]}
